{
  "source": "patent US20100266532A1",
  "about": "“METHODS FOR INHIBITING SCARRING” (Renovo Limited, priority 2007, published 2010)",
  "key": {"[1]": {"system": "1 centimetre experimental wound", "test": "Clinical trial, single intradermal injection, lay panel VAS scar scoring (ToScar)", "assay_type": "in vivo, human", "protocol": "FIG. 1 illustrates data from a clinical trial conducted by the inventors to generate a dose response curve indicative of the anti-scarring effect achieved using various different doses of TGF-β3 administered in a single incidence of treatment. Either TGF-β3 or placebo were administered as a single intradermal injection to a 1 centimetre experimental wound. […] To test the treatment effect, ToScar of the TGFβ3 scar was subtracted from the anatomically matched Placebo ToScar on the other arm on each subject. ToScar was calculated as the sum of VAS scores (mm) from week 6 and months 3, 4, 5, 6 and 7. The scars were scored by an independent lay panel at 6 time points after dosing (week 6, months 3-7) using a 100 mm VAS line."}, "[2]": {"system": "1 cm incisional rat wounds", "test": "Rat model of wound healing and scarring, escalating versus constant doses, macroscopic VAS", "assay_type": "in vivo", "protocol": "FIG. 11 is a graph comparing the mean differences between macroscopic VAS scores of scars formed on healing of 1 cm incisional rat wounds treated with a diluent control (“placebo treated wounds”), and scars formed on healing of wounds provided with one of the following regimes: • i) TGF-β3 control treatment using 20 ng TGF-β3 per centimetre; • ii) TGF-β3 control treatment using 100 ng TGF-β3 per centimetre; or • iii) TGFβ3 treatment using escalating doses of TGF-β3 administered in sequential incidences of treatment.\nIn each case the wounds were subject to two incidences of treatment, the first prior to wounding and the second approximately 24 hours later.\nPlacebo treated control wounds were provided with two incidences of treatment, each of which consisted of administration of a diluent. These placebo treated wounds provide a baseline value for scarring, with reference to which scar inhibition produced by TGF-β3 treatments may be determined. “Control treated wounds” were provided with two incidences of treatment, each comprising injections of TGF-β3 at either 20 ng/100 μl or 100 ng/100 μl (the same concentration of TGF-β3 being injected in each incidence of treatment). The “treated wounds” were provided with an escalating dose regimen in which the first incidence of treatment comprised an injection of 20 ng/100 μl TGFβ3, while the second incidence of treatment comprised an injection of 100 ng/100 μl TGFβ3.\nEach animal received two wounds, and these were arranged so that the wounds of each animal included placebo treated wounds, as well as either treated wounds (examples treated using escalating doses of TGF-β3 administered in sequential incidences of treatment), or control treated wounds (receiving control treatment with TGF-β3 at the same dose in each incidence of treatment). This permits comparison between scars formed on healing of placebo treated wounds and treated or control treated wounds within the same subject. […]\nScars were assessed, and VAS scores produced, 70 days after wounding. […]"}, "[3]": {"system": "scars produced on healing of wounds", "test": "Profilometry analysis of silicone moulds from scars, dosed twice approximately 24 hours apart", "assay_type": "in vivo, human", "text": "Note that this is not a method of treatment in accordance with the invention, but (along with FIG. 6) serves to provide comparative data illustrating the surprising effectiveness of a method of treatment in accordance with the invention."}, "[4]": {"details": "dosed twice with 50 ng/100 μl per cm approximately 24 hours apart"}, "[5]": {"details": "dosed twice with 200 ng/100 μl per cm approximately 24 hours apart"}},
  "data": [
    {"molecule": "TGF-β3: well-known anti-scarring growth factor, Sequence ID No. 1; labelled \"Juvista\" in FIGS. 8 and 9 (protein, listed as Homo sapiens) ALDTNYCFRNLEENCCVRPLYIDFRQDLGWKWVHEPKGYYANFCSGPCPYLRSADTTHSTVLGLYNTLNPEASASPCCVPQDLEPLTILYYVGRTPKVEQLSNMVVKSCKCS", "values": [
      {"measurement": "inhibition of scarring", "setting": "[1]; single application of 50 ng, 200 ng or 500 ng/100 μl per cm of wound margin", "result": "effectively inhibited"},
      {"measurement": "scar improvement (placebo ToScar minus TGFβ3 ToScar, sum of VAS scores), average", "setting": "[1]; single application, 200 ng/100 μl per cm of wound margin, maximum improvement", "result": "> 50", "unit": "mm"},
      {"measurement": "drug efficacy at top of dose range", "setting": "[1]; single application, 500 ng/100 μl per cm of wound margin, versus 200 ng", "result": "reduction in drug efficacy"},
      {"measurement": "scarring compared to placebo (macroscopic VAS)", "setting": "[2]; dosed twice with either 20 ng/100 μl or 100 ng/100 μl, 24 hours apart, 70 days after wounding", "result": "displayed a reduction in scarring"},
      {"measurement": "inhibition of scarring (macroscopic VAS) versus constant doses", "setting": "[2]; escalating: 20 ng/100 μl then 100 ng/100 μl approximately 24 hours later, 70 days after wounding", "result": "much larger magnitude of effect"},
      {"measurement": "inhibition of scarring, macroscopic images", "setting": "[2]; escalating: 20 ng/100 μl then 100 ng/100 μl approximately 24 hours later, 70 days post wounding", "result": "greatest inhibition in scarring"},
      {"measurement": "reduction in scar surface area compared to placebo", "setting": "[3]; [4]", "result": 30.21, "unit": "%"},
      {"measurement": "scar surface area", "setting": "[3]; [4]", "result": 12.823, "unit": "mm^2"},
      {"measurement": "reduction in scar raised volume compared to placebo", "setting": "[3]; [5]", "result": 73.33, "unit": "%"},
      {"measurement": "reduction in scar surface area compared to placebo", "setting": "[3]; [5]", "result": 75.19, "unit": "%"},
      {"measurement": "scar raised volume", "setting": "[3]; [5]", "result": 0.0008, "unit": "mm^3"},
      {"measurement": "scar surface area", "setting": "[3]; [5]", "result": 3.532, "unit": "mm^2"},
      {"measurement": "inhibition of scarring, 3-dimensional simulations", "setting": "[3]; dosed twice with 500 ng/100 μl per cm approximately 24 hours apart", "result": "Maximal inhibition of scarring"}
    ]}
  ]
}
